Measured values from the supplement of paper PMC12338614.
± gives the uncertainty stated by the source.

B1: library; numbered along this chain (parent)
chain: MEVVDPQQLGMFTEGELMSVGMDTFIHRIDSTEVIYQPRRKRAKLIGKYLMGDLLGEGSYGKVKEVLDSETLCRRAVKILKKKKLRRIPNGEANVKKEIQLLRRLRHKNVIQLVDVLYNEEKQKMYMVMEYCVCGMQEMLDSVPEKRFPVCQAHGYFCQLIDGLEYLHSQGIVHKDIKPGNLLLTTGGTLKISDLGVAEALHPFAADDTCRTSQGSPAFQPPEIANGLDTFSGFKVDIWSAGVTLYNITTGLYPFEGDNIYKLFENIGKGSYAIPGDCGPPLSDLLKGMLEYEPAKRFSIRQIRQHSWFRKKHPPAEAPVPIPPSPDTKDRWRSMTVVPYLEDLHGADEDEDLFDIEDDIIYTQDFTVPGQVPEEEASHNGQRRGLPKAVCMNGTEAAQLSTKSRAEGRAPNPARKACSASSKIRRLSACKQQ

Variants of: B1
Assay: STK11 functional score (HeLa growth suppression), rescaled enrichment; synonymous median = 1, nonsense median = 0 (normalised score)
Conditions: with HeLa; variant type: missense
In short: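 The functional score takes the post/pre-selection log ratio, corrects it to wild type, rescales it to synonymous and nonsense medians, and merges it over codons and replicate transfections, with error from bootstrapping. Counts came from tiled gDNA amplicons sequenced on NextSeq (~2 million reads per tile). The libraries were POPCode codon-randomised, codon-optimised STK11 integrated by Bxb1 at an AAVS1 landing pad in HeLa, three regions with three transfections each.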

Row | Variant | STK11 functional score
1 | M139Y | 1.53 ± 0.46
2 | Y246Q | 1.11 ± 0.17
3 | K82S | 1.15 ± 0.26
4 | Y49M | 1.22 ± 0.82
5 | S378L | 0.82 ± 0.19
6 | S69Q | 0.0756 ± 0.11
7 | G270R | 1.43 ± 0.39
8 | N412E | 1.52 ± 0.17
9 | D229M | 1.28 ± 0.35
10 | D229L | 1.05 ± 0.19
11 | L341G | 1.46 ± 0.18
12 | E92M | -0.344 ± 0.13
13 | P294E | 1.3 ± 0.3
14 | F148S | -0.139 ± 0.082
15 | V372R | 1.42 ± 0.38
16 | N380Q | 1.47 ± 0.34
17 | N380K | 1.42 ± 0.48
18 | E33M | 1.44 ± 0.2
19 | L50R | 1.47 ± 0.33
20 | R28P | 0.47 ± 0.12
21 | D194S | -0.236 ± 0.11
22 | P339I | 1.52 ± 0.15
23 | K84G | 1.47 ± 0.4
24 | P254S | 0.653 ± 0.17

Row | Variant | STK11 functional score
25 | S401K | 1.44 ± 0.28
26 | S401R | 1.11 ± 0.38
27 | Q364E | 0.253 ± 0.34
28 | A200M | 1.65 ± 0.14
29 | H313R | -0.189 ± 0.069
30 | H313G | 1.13 ± 0.29
31 | H313M | 1.25 ± 0.59
32 | P144G | 1 ± 0.21
33 | I238M | 0.843 ± 0.17
34 | Q100R | 1.34 ± 0.13
35 | G61W | 0.248 ± 0.097
36 | G61Q | 0.913 ± 0.41
37 | K175W | 0.478 ± 0.09
38 | L80M | 0.45 ± 0.67
39 | R86L | 0.854 ± 0.11
40 | I356F | 1.15 ± 0.18
41 | Q7S | 1.02 ± 0.31
42 | R384H | 1.47 ± 0.13
43 | H345L | 1.2 ± 0.16
44 | P38M | 1.09 ± 0.92
45 | A347S | 1.42 ± 0.18
46 | N393C | 1.54 ± 0.18
47 | N181L | -0.122 ± 0.069
48 | T336V | 1.49 ± 0.14

Row | Variant | STK11 functional score
49 | L113G | 0.252 ± 0.13
50 | I46Y | 1.29 ± 0.28
51 | I46H | 1.58 ± 0.33
52 | R75V | 1.27 ± 0.37
53 | E357T | 1.56 ± 0.17
54 | T363P | 1.34 ± 0.17
55 | A93L | 1.12 ± 0.26
56 | A93H | 1.66 ± 0.18
57 | V77G | 0.0665 ± 0.079
58 | N266C | 0.945 ± 0.51
59 | P179G | 0.216 ± 0.078
60 | M136Q | 0.0397 ± 0.082
61 | G288E | 1.5 ± 0.71
62 | G288M | 1.23 ± 0.13
63 | I361K | 0.624 ± 0.65
64 | G381L | 1.24 ± 0.15
65 | D115N | 1.65 ± 0.37
66 | K262F | 0.714 ± 0.098
67 | P315W | 0.723 ± 0.21
68 | P315N | 1.51 ± 0.16
69 | I424Q | 1.55 ± 0.14
70 | I424A | 1.58 ± 0.27
71 | P6T | 0.874 ± 0.12
72 | M335A | 1.51 ± 0.16

Row | Variant | STK11 functional score
73 | I274G | 1.05 ± 0.26
74 | E14S | 1.34 ± 0.15
75 | E14A | 0.905 ± 0.29
76 | V143C | 1.26 ± 0.22
77 | H202P | 0.806 ± 0.12
78 | G52S | 1.53 ± 0.27
79 | G370S | 1.52 ± 0.23
80 | G233C | 1.43 ± 0.097
81 | I177H | -0.12 ± 0.21
82 | P221R | 0.116 ± 0.18
83 | Y261G | 0.901 ± 0.2
84 | D359V | 1.05 ± 0.17
85 | D359W | 1.07 ± 0.22
86 | S419I | 1.16 ± 0.27
87 | S325W | 0.629 ± 0.13
88 | S325V | 0.786 ± 0.11
89 | S31I | 1.41 ± 0.12
90 | S31H | -0.108 ± 0.4
91 | K97L | 0.76 ± 0.24
92 | K96Y | 1.23 ± 0.31
93 | I303M | 0.518 ± 0.53
94 | Q399C | 1.23 ± 0.5
95 | L263E | 1.04 ± 0.17
96 | P281T | 1.46 ± 0.22

Row | Variant | STK11 functional score
97 | K108V | 0.939 ± 0.085
98 | K108P | 1.35 ± 0.26
99 | K48S | 1.37 ± 0.19
100 | A397Y | 1.38 ± 0.46
101 | L190R | 0.223 ± 0.19
102 | A218Y | 1.34 ± 0.17
103 | D352R | 1.61 ± 0.15
104 | L282F | 1.21 ± 0.33
105 | E165Q | 0.995 ± 0.58
106 | E165V | 0.465 ± 0.35
107 | L72K | 1.08 ± 0.79
108 | P217L | 0.248 ± 0.24
109 | E16K | 0.291 ± 0.28
110 | D53V | 0.606 ± 0.096
111 | I172N | 0.174 ± 0.13
112 | L285V | 0.239 ± 0.1
113 | L182T | 1.12 ± 0.39
114 | G268P | 1.07 ± 0.18
115 | I99D | 0.335 ± 0.1
116 | C391F | 0.922 ± 0.52
117 | P326L | 1.34 ± 0.16
118 | K78P | -0.226 ± 0.12
119 | Q220M | 1.15 ± 0.51
120 | P314W | 1.6 ± 0.17

Row | Variant | STK11 functional score
121 | K44W | 1.3 ± 0.074
122 | S232K | 1.67 ± 0.14
123 | S232I | 1.4 ± 0.18
124 | S142R | 0.875 ± 0.4
125 | V114R | 0.501 ± 0.086
126 | Y131C | 0.51 ± 0.24
127 | K312W | 1.53 ± 0.14
128 | K312Q | 1.58 ± 0.37
129 | S193H | 0.192 ± 0.33
130 | Y362A | 1.42 ± 0.26
131 | K269F | 0.789 ± 0.12
132 | F234D | 1.18 ± 0.1
133 | E351L | 1.43 ± 0.25
134 | P387K | 1 ± 0.31
135 | I360L | 1.13 ± 0.16
136 | P321H | 1.21 ± 0.32
137 | L353S | 1.6 ± 0.14
138 | R415V | 1.57 ± 0.28
139 | V320R | 1.49 ± 0.17
140 | P275S | 0.957 ± 0.27
141 | K416T | 1.37 ± 0.65
142 | K416Y | 1.2 ± 0.58
143 | K146W | 0.507 ± 0.098
144 | P280H | 1.17 ± 0.16

Row | Variant | STK11 functional score
145 | T244W | 0.257 ± 0.092
146 | T244Q | -0.178 ± 0.32
147 | I79M | 0.465 ± 0.1
148 | I79L | 0.451 ± 0.14
149 | L245C | 0.21 ± 0.093
150 | L245F | 0.00828 ± 0.095
151 | K388Y | 1.07 ± 0.35
152 | I224H | 1.46 ± 0.41
153 | K83V | 1.05 ± 0.48
154 | K83I | 1.29 ± 0.08
155 | E199S | 1.21 ± 0.18
156 | H107F | 0.159 ± 0.075
157 | N90D | 1.23 ± 0.21
158 | G180L | 1.02 ± 0.094
159 | A198F | 0.731 ± 0.25
160 | G15S | 1.28 ± 0.12
161 | S216V | 0.614 ± 0.25
162 | M127G | 0.516 ± 0.14
163 | D330H | 0.985 ± 0.41
164 | P319N | 1.48 ± 0.16
165 | P319A | 1.37 ± 0.32
166 | G385A | 1.46 ± 0.15
167 | L167Y | 0.387 ± 0.46
